Where “and” joins values, the source holds several entries; their conditions need not be identical. Equal values may be shown once. Read-outs that look alike come from different tables or passages of the source.

First the molecules themselves.
T1: Bacillus stearothermophilus DnaB helicase (Bacillus stearothermophilus, UniProt Q9X4C9 1-454)
T1 sequence (looked up): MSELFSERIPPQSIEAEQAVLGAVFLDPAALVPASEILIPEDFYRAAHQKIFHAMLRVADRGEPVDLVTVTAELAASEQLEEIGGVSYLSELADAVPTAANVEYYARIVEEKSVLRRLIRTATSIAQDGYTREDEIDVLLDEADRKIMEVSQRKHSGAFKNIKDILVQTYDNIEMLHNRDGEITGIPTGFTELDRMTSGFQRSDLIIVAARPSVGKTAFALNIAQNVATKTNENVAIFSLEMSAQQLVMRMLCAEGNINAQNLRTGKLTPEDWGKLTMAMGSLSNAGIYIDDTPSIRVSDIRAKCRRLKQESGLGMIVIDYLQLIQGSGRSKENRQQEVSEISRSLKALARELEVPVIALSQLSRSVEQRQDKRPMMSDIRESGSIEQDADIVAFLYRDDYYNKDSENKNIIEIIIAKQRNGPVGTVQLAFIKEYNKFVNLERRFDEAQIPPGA

B1: Bacillus subtilis clamp-loader δ′ subunit (holB) (natural protein, UniProt P37540 1-329, looked up)
chain: MAISWKEMNELQPRVMKLLYNSIEKDRLSHAYLFEGKKGTGKLDAALLLAKSFFCLEGGAEPCESCRNCKRIESGNHPDLHLVQPDGLSIKKAQIQALQEEFSKTGLESHKKLYIISHADQMTANAANSLLKFLEEPNKDTMAVLITEQPQRLLDTIISRCQTLPFQPLQPKAIEDRLIEQDVSPHMARLLANMTNNVAEAVELSRNDEFAESRAKVIKLYEVLHQRKGHAFFFIQDQWMPFFKEKTHQEMGLDMLLLIYRDVLSIQIGNEDKLIYQDLFQSIKQHALQSTQQSVTNQILAVLEAKKRLHSNVNVQGLMEHLVLMLQEG
B2: Bacillus subtilis clamp-loader δ subunit (yqeN) (natural protein, UniProt P54459 1-347, looked up)
chain: MVFDVWKSLKKGEVHPVYCLYGKETYLLQETVSRIRQTVVDQETKDFNLSVFDLEEDPLDQAIADAETFPFMGERRLVIVKNPYFLTGEKKKEKIEHNVSALESYIQSPAPYTVFVLLAPYEKLDERKKLTKALKKHAFMMEAKELNAKETTDFTVNLAKTEQKTIGTEAAEHLVLLVNGHLSSIFQEIQKLCTFIGDREEITLDDVKMLVARSLEQNIFELINKIVNRKRTESLQIFYDLLKQNEEPIKIMALISNQFRLILQTKYFAEQGYGQKQIASNLKVHPFRVKLAMDQARLFSEEELRLIIEQLAVMDYEMKTGKKDKQLLLELFLLQLLKRNEKNDPHY
B3: Bacillus subtilis clamp-loader τ subunit (natural protein, UniProt P09122 1-563, looked up)
chain: MSYQALYRVFRPQRFEDVVGQEHITKTLQNALLQKKFSHAYLFSGPRGTGKTSAAKIFAKAVNCEHAPVDEPCNECAACKGITNGSISDVIEIDAASNNGVDEIRDIRDKVKFAPSAVTYKVYIIDEVHMLSIGAFNALLKTLEEPPEHCIFILATTEPHKIPLTIISRCQRFDFKRITSQAIVGRMNKIVDAEQLQVEEGSLEIIASAADGGMRDALSLLDQAISFSGDILKVEDALLITGAVSQLYIGKLAKSLHDKNVSDALETLNELLQQGKDPAKLIEDMIFYFRDMLLYKTAPGLEGVLEKVKVDETFRELSEQIPAQALYEMIDILNKSHQEMKWTNHPRIFFEVAVVKICQTSHQSAADLPEVDMLMKKIQQLEQEVERLKTTGIKAAAESPKKEAPRVPKGGKSNYKAPVGRIHEILKEATRPDLDLLRNSWGKLLAHLKQQNKVSHAALLNDSEPVAAGSAAFVLKFKYEIHCKMVAEDNNGVRTNLEQILESMLGKRMDLIGVPEAQWGKIREEFLEDHQQENEGSNEPAEEDPLIAEAKKLVGADLIEIKD

Holding throughout (assay): native MS
Series [1] has as its target Bacillus subtilis clamp-loader δ subunit (yqeN) (Bacillus subtilis) (UniProt P54459).
In series [2] the target is B3.
Series [3] deals with the molecule itself.
For series [4], the target named is B3. This is another data set of the same source.
The target in series [5] is B3. The source holds these as a separate data set.
Series [6] concerns the molecule itself. The source holds these as a separate data set.
Series [7] concerns the molecule itself. The source holds these as a separate data set.
The target in series [8] is T1, Bacillus stearothermophilus DnaB ….

In turn, “Bacillus subtilis clamp-loader δ subunit (yqeN) (from UniProt P54459 1-347) (natural protein)” came in with a stoichiometry N (subunits in the oligomer) in series [1] of 2.

In general, stoichiometry N refers to a count of units in the complex or per binding partner. For the molecule B1, the “stoichiometry N” value in series [2] is 3 τ per δ′ and 2 τ per δ′; in the series “native MS [3]”, 2 subunits in the oligomer.

With B2, the “stoichiometry N” value in series [4] is 2 τ per δ; in series [5], 3 τ per δ.

On to B3, for which the “stoichiometry N” value in the series “native MS [6]” is 3 subunits in the oligomer and 2 subunits in the oligomer and 5 subunits in the oligomer; in “native MS [7]”, 4 subunits in the oligomer; in series [8], 3 τ per DnaB hexamer.
